In the supplement of paper PMC10201428:
± gives the standard deviation of the averaged measurements.

B1: library; a variant is named by its letters at N, in order (parent)
chain: AATGTTGTTGATGCAACCATAAAGTGATATTTAATAATTATTTATAATCAGCAACTTAACCACAAAACAACCATATATTGATATNTCACAAAACAACCATAANTTGATATTTTTGTGAATCGAGTATTTCAGCAAAACTACTGCAGTAAGAA

How the values were obtained:
[1] = variants of: B1; assay: relative integration efficiency (T-LR orientation) vs wild-type transposon end (log2 (normalized fold change)); transposon end mutated: left end; higher = more efficient transposition; details: with VchCAST RNA-guided transposition machinery (E. coli BL21(DE3) host, lacZ target)
Experimental: (§1)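 Pooled, barcoded VchCAST (Tn6677) mini-transposon donor libraries; each variable transposon-end sequence sits in a fixed pDonor mini-transposon context (10-bp barcode and cargo not included). Left- or right-end libraries were co-transformed with pEffector (TniQ-Cascade, TnsABC, lacZ crRNA, T7, 0.1 mM IPTG) into E. coli BL21(DE3) and grown 18 h at 37 C. T-LR and T-RL junction amplicons were sequenced; output/input barcode fold change was normalised to the mean of four wild-type barcodes and log2-transformed. Two biological replicates; zero-count/undetected variants carry floor values (-10 / -15), censored here. Barcode uncoupling by PCR recombination adds noise.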

[2] = variants of: B1; assay: relative integration efficiency (T-RL orientation) vs wild-type transposon end (log2 (normalized fold change)); transposon end mutated: left end; higher = more efficient transposition; details: with VchCAST RNA-guided transposition machinery (E. coli BL21(DE3) host, lacZ target)
Experimental: as §1

Variant	relative integration efficiency (log2) [1]	relative integration efficiency (log2) [2]
CG A23G G24T A33T	0.0764 ± 0.17	-0.108 ± 0.099
TG A23G G24T A33T A70C T76A T84A C87A	0.473 ± 0.22	0.022 ± 0.35
TG A23G G24T A33T A70C T76A T86G	-0.0695 ± 0.1	-0.149 ± 0.11
TG A23G G24T A33T T76A A77G C87T	0.312 ± 0.44	-0.26 ± 0.39
TG A23G G24T A33T T76A T78A T84A C87A	0.325 ± 0.22	0.0428 ± 0.34
TG A23G G24T A33T T76A T78G C87A	0.632 ± 0.11	0.16 ± 0.09
CG A23T	0.0168 ± 0.12	0.086 ± 0.23
CG A23T G24C	0.111 ± 0.07	-0.0468 ± 0.13
CG A23T G24C T25A G26C	-2.69 ± 1.5	-2.6 ± 0.78
CG A27C	-0.151 ± 0.13	-0.383 ± 0.25
CG A27C A81C A107C	-1.49 ± 1.6	-1.32 ± 0.78
CG A27C T28G	-0.919 ± 0.29	-1.27 ± 0.47
CG A27C T28G A29C T30G	-2.34 ± 1.1	-2.43 ± 0.93
CG A27G	-0.486 ± 0.47	-0.621 ± 0.35
CG A27T	-1.01 ± 1.3	-0.545 ± 0.55
CG A27T A81T A107T	-2.46 ± 1.4	-3.03 ± 1.3
CG A27T T28A	-0.61 ± 0.9	-0.441 ± 0.66
CG A27T T28A A29T T30A	-0.918 ± 0.29	-0.753 ± 0.39
CG A29C	-0.501 ± 0.28	-0.333 ± 0.36
CG A29C A83C A109C	-1.94 ± 0.43	-1.65 ± 0.57

Variant	relative integration efficiency (log2) [1]	relative integration efficiency (log2) [2]
CG A29C T30G	-1.28 ± 1.4	-1.12 ± 0.53
CG A29C T30G T31G T32G	-0.555 ± 0.56	-0.723 ± 0.61
CG A29G	-0.232 ± 0.74	-0.238 ± 0.44
CG A29T	-0.0387 ± 0.14	0.26 ± 0.13
CG A29T A83T A109T	-0.979 ± 0.74	-0.428 ± 0.23
CG A29T T30A	0.489 ± 0.49	0.23 ± 0.29
CG A29T T30A T31A T32A	-0.245 ± 0.11	-0.49 ± 0.46
CG A33C	0.29 ± 0.052	0.172 ± 0.082
CG A33C A34C	-0.259 ± 0.42	0.167 ± 0.0038
CG A33C A34C T35G A36C	-0.094 ± 0.018	-0.077 ± 0.049
CG A33C C87A T113G	0.0172 ± 0.12	-0.0603 ± 0.021
CG A33G	0.00747 ± 0.0001	0.292 ± 0.074
CG A33T	0.232 ± 0.46	0.135 ± 0.21
CG A33T A34T	0.663 ± 0.25	0.125 ± 0.061
CG A33T A34T T35A A36T	0.405 ± 0.42	0.295 ± 0.092
CG A33T C87G T113A	0.02216 ± 0.00015	-0.157 ± 0.2
CG A34C	0.459 ± 0.34	0.215 ± 0.064
CG A34C A36G T38C A40G T42C A62G A65G A66C	-0.589 ± 0.68	-0.685 ± 0.25
CG A34C A36G T38C T42C A62G A65G A66C	-0.874 ± 0.72	-0.721 ± 0.33
CG A34C T35C A36G T38C A40G T42C A44G A62G A65G A66C	-0.6091 ± 0.0048	-0.635 ± 0.3

Variant	relative integration efficiency (log2) [1]	relative integration efficiency (log2) [2]
CG A34C T35C A36G T38C A40G T42C A44G T45C A46C A53C A62G A65G A66C	-1.83 ± 0.73	-1.68 ± 0.71
CG A34C T35C A36G T38C A40G T42C A44G T45C A46C A62G A65G A66C	-1.11 ± 0.2	-1.33 ± 0.56
CG A34C T35G	0.139 ± 0.22	-0.109 ± 0.025
CG A34C T35G A36C A37C	0.532 ± 0.072	0.175 ± 0.24
CG A34C T35G T39C T41A T45A G51T C52A A53G A54G C60T A62G C63A	0.531 ± 0.51	-0.0678 ± 0.088
CG A34G	-0.187 ± 0.0028	-0.0204 ± 0.046
CG A34T	0.848 ± 0.42	0.709 ± 0.11
CG A34T A36G A37T T38G T39A A40G T41C T42G T43G T48C C49A	-2.77 ± 0.75	-2.86 ± 0.81
CG A34T T35A	0.192 ± 0.25	0.209 ± 0.033
CG A34T T35A A36T A37T	0.329 ± 0.44	0.189 ± 0.094
CG A36C	-0.699 ± 0.7	-0.216 ± 0.15
CG A36C A37C	0.196 ± 0.61	0.127 ± 0.018
CG A36C A37C T38G T39G	-0.25 ± 0.0025	-0.22 ± 0.14
CG A36G	-0.222 ± 0.59	-0.259 ± 0.23
CG A36G A65G A66C	-0.205 ± 0.26	-0.491 ± 0.18
CG A36G T42C A62G A65G A66C	-0.297 ± 0.32	-0.575 ± 0.29
CG A36T	0.0771 ± 0.068	0.0168 ± 0.042
CG A36T A37T	0.375 ± 0.21	0.0996 ± 0.091
